This is an account of results in paper PMC6694833, “Rational Design of Zika Virus Subunit Vaccine with Enhanced Efficacy” (Journal of Virology, 2019).

One assay concerns the target ZKA64-LALA. As to the kind of experiment: ELISA. The settings on record: read at the highest MAb concentration plotted (about 2000 ng/ml, estimated from the x axis); parent: est. 3.4; read off a plot.
The next assay has as its target ZV-54. Description: ELISA. The settings on record: read at the highest MAb concentration plotted (about 250 ng/ml, estimated from the x axis); parent: est. 3.7; read off a plot.
For the next assay, the target named is Z004. As to the kind of experiment: ELISA. The settings on record: read at the highest MAb concentration plotted (about 2000 ng/ml, estimated from the x axis); parent: est. 3.5; read off a plot.
The target of assay [1] is ZV-67, ZIKV EDIII-specific neutralizing MAb. Description: ELISA. The settings on record: read at the highest MAb concentration plotted (about 500 ng/ml, estimated from the x axis); parent: est. 3.6; read off a plot.
Assay [2] has as its target ZV-2, ZIKV EDIII-specific nonneutralizing mouse MAb. As to the kind of experiment: ELISA. The settings on record: read at the highest MAb concentration plotted (about 500 ng/ml, estimated from the x axis); parent: est. 3.6; read off a plot.
The target of assay [3] is T1, ZIKV EDIII protein containing residues 298 to 409 (wild type) fused with a C-terminal human IgG1 Fc tag (Zika virus, strain ZikaSPH2015 (GenBank …, UniProt A0A0U3FSM8, strain)).
T1 construct: also called wild-type EDIII; WT EDIII; not shown: Fc (human IgG1), C-terminal, kept
Description: ELISA; plates coated with wild-type or mutant ZIKV EDIII protein overnight at 4°C, blocked with 2% fat-free milk in PBST; serially diluted MAbs, then HRP-conjugated anti-mouse IgG-Fab or anti-human IgG-Fab, 1 h at 37°C; absorbance at 450 nm. The settings on record: both partners purified.

Turning to “ZIKV EDIII protein containing residues 298 to 409 (wild type) fused with a C-terminal human IgG1 Fc tag M375N; E377T”, the response in the assay with ZKA64-LALA is 3.4 A450; with ZV-54 it was 3.7 A450; with Z004 it was 3.5 A450; in assay [1], 3.6 A450; in assay [2] it was 0.15 A450.

B1: ZV-2, ZIKV EDIII-specific nonneutralizing mouse MAb (antibody, V domains shown)
VH: QVQLQESGAELMKPGASVKLSCKTSGYTFIGYWIEWLKQRPGHGLEWVGEIFPGSGRTKYNEKFKGRATFTADTSSNMAYMQLSSLTTEDSAIYYCARYYYGSYYALDYWGQGTSVTVSS
VL: DIVMTQSPSSLSVSAGEKVTLSCKSSQSLLHSGNQKNYLAWYQQKPGQAPKLLIYGASTRESGVPDRFTGSGSGTDFTLTISSVQAEDLAVYYCQNDHSYPLTFGAGTKLELK
notes: also called MAb ZV-2; source: bought: BEI Resources
B1: the binding result in assay [3] is recorded as “binds”.

B2: ZV-67, ZIKV EDIII-specific neutralizing MAb (antibody, V domains shown)
VH: QAQLQQSGTGLARPGASVKLSCKASGYTFTSYGISWVTQRAGQGLEWIGVIYPRSGNTYYNEKFRGKATLTADKSSSSAYMELRGLTAEDSAVYFCARENYGSVYWGQGTTLTVSS
VL: DIVMTQSQKFMSTSVGDRVSITCKASQNVGTAVAWYQQKPGQSPKLLIYSASNRYTGVPDRFTGSGSGTDFTLTISNMQSEDLADYFCQQFSSYPYTFGGGTKLEIK
notes: also called MAb ZV-67; human MAb ZV-67; source: bought: Absolute Antibody
On to B2, for which the binding result in assay [3] is reported as “binds”.
